Reference: article PMC5966361, “Ligand binding and conformational changes of SUR1 subunit in pancreatic ATP-sensitive potassium channels” (Protein & Cell, 2018)

Experiments:
[1] = biological target: SUR1-Kir6.2 fusion construct with a 39-residue linker (Mesocricetus auratus | Mus musculus); assay: SEC; screening of fusion constructs: cleared lysate of transfected FreeStyle 293-F cells solubilised in 20 mmol/L HEPES pH 8.0, 120 mmol/L KCl, 1% digitonin, loaded onto a Superose 6 increase column
[2] = biological target: the molecule itself; assay: cryo-EM structure; Mg-ADP state: purified fusion channel in 20 mmol/L HEPES pH 8.0, 120 mmol/L KCl, 0.1% digitonin, with 2.5 mmol/L MgCl2, 1 mmol/L ADP, 400 μmol/L 08:0 PI(4,5)P2, 500 μmol/L NN414 and 1 mmol/L Na3VO4; C4 symmetry

Molecule	stoichiometry N [1]	stoichiometry N [2]
SUR1-Kir6.2 fusion construct with a 39-residue linker (complex)	4	–
Kir6.2 (inward-rectifying potassium channel 6.2) subunit, as part of the SUR1-Kir6.2 fusion construct (natural protein, Mus musculus, Kir6.2 from Mus musculus (Woo et al., 2013); In the assay it stood as the C-terminal part of the fusion chain of m1; its N-terminus is joined through the 39-residue linker to the C-terminus of SUR1, so it has no free native N-terminus; The linker and the Kir6.2 N-terminus are disordered in the maps; also called mmKir6.2; source: FreeStyle 293-F cells, BacMam system, purified as part of the fusion …) MLSRKGIIPEEYVLTRLAEDPAEPRYRTRERRARFVSKKGNCNVAHKNIREQGRFLQDVFTTLVDLKWPHTLLIFTMSFLCSWLLFAMVWWLIAFAHGDLAPGEGTNVPCVTSIHSFSSAFLFSIEVQVTIGFGGRMVTEECPLAILILIVQNIVGLMINAIMLGCIFMKTAQAHRRAETLIFSKHAVITLRHGRLCFMLRVGDLRKSMIISATIHMQVVRKTTSPEGEVVPLHQVDIPMENGVGGNGIFLVAPLIIYHVIDSNSPLYDLAPSDLHHHQDLEIIVILEGVVETTGITTQARTSYLADEILWGQRFVPIVAEEDGRYSVDYSKFGNTIKVPTPLCTARQLDEDRSLLDALTLASSRGPLRKRSVAVAKAKPKFSISPDSLS	–	4
